In IntAct's records for PubMed 17911252:

B1: N-chimaerin (Homo sapiens), P15882-1 (parent)
chain: MALTLFDTDEYRPPVWKSYLYQLQQEAPHPRRITCTCEVENRPKYYGREFHGMISREAADQLLIVAEGSYLIRESQRQPGTYTLALRFGSQTRNFRLYYDGKHFVGEKRFESIHDLVTDGLITLYIETKAAEYIAKMTINPIYEHVGYTTLNREPAYKKHMPVLKETHDERDSTGQDGVSEKRLTSLVRRATLKENEQIPKYEKIHNFKVHTFRGPHWCEYCANFMWGLIAQGVKCADCGLNVHKQCSKMVPNDCKPDLKHVKKVYSCDLTTLVKAHTTKRPMVVDMCIREIESRGLNSEGLYRVSGFSDLIEDVKMAFDRDGEKADISVNMYEDINIITGALKLYFRDLPIPLITYDAYPKFIESAKIMDPDEQLETLHEALKLLPPAHCETLRYLMAHLKRVTLHEKENLMNAENLGIVFGPTLMRSPELDAMAALNDIRYQRLVVELLIKNEDILF

Variants of: B1
Conditions: with epha4_mouse Epha4, Q03137
epha4_mouse Epha4, Q03137, sequence (Q03137 whole entry): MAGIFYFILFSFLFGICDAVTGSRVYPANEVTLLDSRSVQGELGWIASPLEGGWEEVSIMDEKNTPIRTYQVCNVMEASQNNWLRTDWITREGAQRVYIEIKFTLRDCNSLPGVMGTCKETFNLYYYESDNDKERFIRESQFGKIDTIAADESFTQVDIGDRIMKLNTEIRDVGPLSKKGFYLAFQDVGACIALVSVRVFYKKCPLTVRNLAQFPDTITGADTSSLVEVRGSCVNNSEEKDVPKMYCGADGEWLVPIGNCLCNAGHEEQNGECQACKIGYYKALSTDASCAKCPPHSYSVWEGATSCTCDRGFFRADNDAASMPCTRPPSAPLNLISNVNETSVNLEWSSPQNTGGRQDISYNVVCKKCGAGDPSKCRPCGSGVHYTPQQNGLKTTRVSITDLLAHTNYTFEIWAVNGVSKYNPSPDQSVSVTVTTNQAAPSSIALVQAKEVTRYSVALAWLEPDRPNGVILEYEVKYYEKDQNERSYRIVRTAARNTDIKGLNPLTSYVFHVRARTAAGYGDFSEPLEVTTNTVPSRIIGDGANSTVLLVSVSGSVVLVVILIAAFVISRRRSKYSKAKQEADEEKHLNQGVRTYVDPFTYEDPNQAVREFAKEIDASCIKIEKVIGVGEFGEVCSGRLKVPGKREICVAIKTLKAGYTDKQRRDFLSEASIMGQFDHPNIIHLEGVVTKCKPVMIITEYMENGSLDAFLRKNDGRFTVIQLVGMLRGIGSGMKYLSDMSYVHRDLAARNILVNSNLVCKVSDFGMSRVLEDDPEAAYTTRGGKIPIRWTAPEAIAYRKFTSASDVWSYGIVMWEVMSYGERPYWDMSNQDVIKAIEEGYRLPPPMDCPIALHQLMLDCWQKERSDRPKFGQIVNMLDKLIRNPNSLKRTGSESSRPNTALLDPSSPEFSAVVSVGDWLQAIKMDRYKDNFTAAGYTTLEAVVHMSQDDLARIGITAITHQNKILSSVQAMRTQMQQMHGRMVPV

| effect of a mutation on the interaction | Variant |
| --- | --- |
| decreasing interaction strength | R56L |
